Measurements from the nanobody polyreactivity screen of Harvey et al. (2022).

Test: yeast display, Sf9 membrane polyspecificity reagent, FACS + sequencing; frameworks hold sequencing errors
In short: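 Sorting gates, low and high (top ~1%), were placed on anti-HA fluorescence to track expression and on streptavidin fluorescence to track reagent binding. A clone's polyreactivity label is taken from the gate it came out of. The reagent was 10% biotinylated, detergent-solubilized Sf9 membrane, applied for 1 hour at 4 °C to galactose-induced yeast display cells.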

Sequence	polyreactivity (PSR sort gate)
QVQLVESGRGLVQAGVSLRLSCADSGSTFDYNAMGCYRQATGKERELVPVNRSGGTTYYADSVKGRFTISRDNANNTVYLQMNSLKPEDTAVYYCAAAFQRRAGSYGGSRRYGYWGQVTQVTVSS	high polyreactivity
QVQLVESGRGLVQARGSLRLSCAASGFIFYRYAMGWYRQAPGKEREFVAANTSTGTTYYADSVKGRFTISRDNAKNTVYLQMNSLKPEDTAVYYCNAGFRYKYQSSRVDYWGQGTQVTVSS	high polyreactivity
QVQLVESGRGLVQEGGSLRLSCAPSGLIFRYYAMGWYRQAPGKEREFVAAISGRGASTYYADSVKGRFTISRDNAKITGYLQMNSLTPEDTAVYYCATYFPSAVVAFHMDYWGQGTQVTVSS	high polyreactivity
QVQLVESGRRLVQAGGSLRLTCAASGRTFVTNAMGWYRQAPGKERELVAAISSKGGSTYYADSVKGRFTISRDNAKNTVYLQMNSLKPEDTAVYDCNAEGQPLYVSWHDHRYIYGFDYWGQGTQVTVSS	low polyreactivity
QVQLVESGSGLVQAGGSLRLSCAASGSIFVNYGMGRYRQAPGKERELVAAINRNGGRTYYADSVKGRFTISRDNAKNTVYLQMNSLKPEDTAVYYCNALYPGGLSLSRLDYWGQGTQVTVSS	high polyreactivity
QVQLVESGVCIVQAGGSLRLSCAASGFTFRENAMGWYRQAPGKERELVAAISKRGGTTYYADSVKGRFTSSRDYAKNTVILQTNSLKPEDTAVYYCATQYLIQNKYYSWGQGTQVTVSS	high polyreactivity
QVQLVESGVCLVQAGGSLRLSCAASGSTITYNAMGWYRQAPGKERELVASISSGTTTYYADSVKGRFTISRDNAKNTVYLQMNSLHTEDTAVYYCAVDSCSRVQGWLAHNYDYWGQGTQVTVSS	low polyreactivity
QVQLVESGVGFVQAGGSLRLSCAASGSTFGYYDMGWYRQAPGKERELVASIRSSGSTYYADSVKGRFTISRDNPKHTVYFQMNSLKPEDTAVYYCNTASLYHRWQGSWPKYDYWGQGTQVTVSS	high polyreactivity
QVQLVESGVGIVQAGGSLRLSCAASGRIFDLYAMVWYRQAPGKEREFVAAISLSGGSTYYADSVKGRFTISRDNAKNTVYLQMNSLKPEDTAVYYCAADHTGKTYDYNYWGQGTQVTVSS	low polyreactivity
QVQLVESGVGIVQAGGSLRLSCAASGSTFVSNAMGWYIPAPGKERELVAAISWTGGSTYYADSVKGRFTISRDNAKTTVYLQMNSLKPEDTAVYYCAAQLTDTYYQYDYWGQVTQVTVSS	low polyreactivity
QVQLVESGVGIVQAGGSLRVSCAASGFTFYSYAKGWYRQAPGKERELVAAISYTGGSTYYADSVKGRFTISRDNAKNTVSLQMNSQKPEDSAVYYCAAKLWTRVTRMRRWVDYWGQGTQVSVSS	high polyreactivity
QVQLVESGVGLDQAGGSLRLSCAASGSTFWWNNMVCYRQAPGKERELVAAITTGGGTYYADSVKGRFTISRDNAKNSVYLQMNSLKPEDTAVYYCAATVRSYGWYAYHYSTYGYWGKGTQVTVSS	low polyreactivity
QVQLVESGVGLLQAGGSLRLSCAASGFIIVPYAMGWYIQAPGKERELVATITWRGDSTYYADSVKGRFTISRDNAKNTVYLQMNSLKPEDTAVYYCAKRVVRGKVDYWGQGTQVTVSS	low polyreactivity
QVQLVESGVGLVHAGGSLRLSCAASGFIFVRYSIGWYRQAPGKEREFVASISWSGGSTYYADSVKGRFTISRDNAKNTVYLQMNSLKPEDTAVYYCAAYVRKDRSRGLYGYWGQGTQVTVSS	high polyreactivity
QVQLVESGVGLVKAGGILRLSCAASGSIFLRYAMGWYRQAPGKERELVATISKSGGSTYYADSVKGRFTISRDNAKNTVYLQMNSLNPEDTAVYYCAAGYVYFQTYYYWGQGTQVTVSS	high polyreactivity
QVQLVESGVGLVQAAGSLRLSCAASGSIFPDNAMGWSRQAPGKERELVAAIDKGTGSTNYADSVKGRFTISRDNAKNTVYLQMNSLKPEDTAVYYCATYVVTLYWWYTYDYWGQGTQVTVSS	low polyreactivity
QVQLVESGVGLVQAGASLRLSCAASGFIFRKNAMGWYRQAPGKERELVAAISGSGGRTYYADSVKGRFTISRDNAKNTVYLQMNSVKPEDNAVYYCNADYLSRRYSFDYWGQGTQVTVSS	high polyreactivity
QVQLVESGVGLVQAGGRLRLSCAASGSIFPTNAMGWYRQAPGKERELVAAISGSGGSTYYADSVKGRFTISRDNAKNTVYLQMNSLKPEDTAVYYCAVKPAPTRTTKRLVYGYNYWGQGTQVTVSS	high polyreactivity
QVQLVESGVGLVQAGGRLRLSCASSAIIFKIYAMGWYRQAPGKERELVADITSVGSTKYADSVKGRFTISRDNAKNTVYLQMNSLKPEDTAVYYCATDWVTSHDDDYWGQGTQVTVSS	low polyreactivity
QVQLVESGVGLVQAGGSLRISCAASGGTFLWYAMGRYRQAPGKERELVADITYSGGSTYYADSVKGRFTISRDNAKNTVYLQMNSLKPEDTAVYYCATRGVSPSRPGYYWGQGTQVTVSS	high polyreactivity
QVQLVESGVGLVQAGGSLRLICAASGGTFEFYTMGRYRQAPGKERELVAVINASGDSTYYADSVKGRFTISRDNAKNTVYLQMNSLKPEDTAVYYCAADHRGEYDYWGQGTQVTGSS	low polyreactivity
QVQLVESGVGLVQAGGSLRLICAASGITFSGYDMVWYRQAPWKERELVAAISGSGTSTYYADSEKGRFTISRDKAKNTVYLQMNSLKPEDTAVYYCAARDAIFGSDYWGQGTQVTVSS	high polyreactivity

Sequence	polyreactivity (PSR sort gate)
QVQLVESGVGLVQAGGSLRLICAASGMTFDNYAMGWYRQAPGKERELVAAITSGDGTYYADSVKGRFTISRDNAKNTVYLQMNSLKPEDTAVFYCAVQGSRTENYDWYYYWGQGTQVTVSS	low polyreactivity
QVQLVESGVGLVQAGGSLRLICAASGSTFYYYAMGWYRQAPGKEREFVAAISSSTGSTYYADSVKGRFTISRDNAKNTVYLQLNSLKPEDTAVYYCNALTWYTSQDYDYWGQGTQVTVSS	high polyreactivity
QVQLVESGVGLVQAGGSLRLSCAASGFIIYGYVMGWYRQAPGKERELVAAINSSSGRTYYADSVKGRFTISRDNAKNTVYLQMNSLKPEDTAVYYCAAYYYGSYDGTPYDYWGQGTQVTVSS	low polyreactivity
QVQLVESGVGLVQAGGSLRLSCAASGFMFGGSAMGWKRQAPGKERELVAAITRSGGSTYYADSVKGRFTISRDNAKNTVYLQMNSLKPEDTAVYYCAAERQPYRTSSYNYWGQGTQVTVSS	high polyreactivity
QVQLVESGVGLVQAGGSLRLSCAASGFTFQQYAMAWYRQAPGKERELVASISSSGGSTYYADSVKGRFTISRDNAKNTVYLQMNSLKPEDTAVYYCNARSWVRRYIYYYWGQGTQVTVSS	high polyreactivity
QVQLVESGVGLVQAGGSLRLSCAASGFTIYRYAMGWYRQAPGKERELVAAISRGVNTNYADSVKGRFTISRDNAKNTVYLQMNSLKPEETAVYDCAARYDNPSYRTTYGFWGQGTQVTLSS	high polyreactivity
QVQLVESGVGLVQAGGSLRLSCAASGGIFSTYTMGWYIQAPGKERELVAAITTGNSTYYADSVKGRFTISRDNAKNTVYLQMNSLKPEDTAVYYCAAFAASRDYYRRLIHDGYDYWGQGTQVTVSS	low polyreactivity
QVQLVESGVGLVQAGGSLRLSCAASGITFYGYTMGWYRQAPGKEMELVASIRWRGGNTYYADSVKGRFTISRDNAKITVYLQMNSLKPEDTAVYYCNARARVYYYKEIVAYDYWGQGTQVTVSS	high polyreactivity
QVQLVESGVGLVQAGGSLRLSCAASGLIFQGYAMGWYTQAPGKERELVAAITLSGGSTYYADSVKGRFTISRDNAKITDYLLMNSLKPEDTAVYYCNAYYPDEPSLYDYWGQGTQVTVSS	low polyreactivity
QVQLVESGVGLVQAGGSLRLSCAASGLTFYLYSMGWYRQAPGKERELVAAINSRGGNTYYADSVKGRFTISRDKAKNTVDLQMNSLKPEDTAVYYCAADWGPWYYYWGQGTQVTVSS	high polyreactivity
QVQLVESGVGLVQAGGSLRLSCAASGRICVKYAMGWYRQAPGKERELVAAISASGGGTYYADSVKGRFTISRDNAKNTVYLQMNSLKPEDTAVYYCNADFRYPGQVPSYVTYDYWGQGTQVTVSS	low polyreactivity
QVQLVESGVGLVQAGGSLRLSCAASGRIFDGYDMGWYRQAPGKERELVAAITSVGSTNYADSVKGRFTISRDNAKNTVYLQMNSLKPEDTAVYYCAAVLYVFYDEYGYWEYFSQYDYWGQGTQVTVSS	low polyreactivity
QVQLVESGVGLVQAGGSLRLSCAASGRIFPTYAMGWYRQAPGQERELVAGITSGGRTNYADSVKGRFTISRDNAKNTVYLQMNSLKPEDTAVYYCAKRVWPRDQYGKRNPRMDYWGQGTQVTVSS	high polyreactivity
QVQLVESGVGLVQAGGSLRLSCAASGRIFWDYGMGWYRQAPGKERELVAVITWGGGSTYYADSVKGRFTISRDNAKNTVYLQMNSLKPEDTAVYYCAKEYHYYYWGQGTEVTVSS	low polyreactivity
QVQLVESGVGLVQAGGSLRLSCAASGRIFYLYAMGWYRQAPGKDSELVAAITWSGGSTTYADSVKVRFTISRDNAKNSVYLQMNSLKPEETAVYYCNADGWIFPSVSPMDYWGQGTQVTVSS	low polyreactivity
QVQLVESGVGLVQAGGSLRLSCAASGRTFPYNAMGWYRQAPGKERELVAVISSSGGSTYYADSVKGRFTISRDNAKNTVYLQMNSLKPEDTAVYYCNTRPYFYRRPGYRYSGYDYWGLGTQVTVSS	high polyreactivity
QVQLVESGVGLVQAGGSLRLSCAASGRTFYKNAMGWSRQSPGKERELVAAISRRGGTTYYADSVKGRFTISRDNAKNTVYLQLNSPKPEDTAVYYCAVTRLGPTIGFYYWGQGTQVTVSS	high polyreactivity
QVQLVESGVGLVQAGGSLRLSCAASGRTFYVYAMGWNIQAPGKERELVAAISWGRGSTYYADSVKGRFTNSRDYAKNTVYLQMNSLQPEDTAVYYCADDKTRYRLGRDYWGQGTQVTVSS	low polyreactivity
QVQLVESGVGLVQAGGSLRLSCAASGSIFATNDMGWYRQAPGKERELVASISSGGGSTYYADSVKGRFTISRDNAKNTVYFQMNSLKPEDTAVYYCAADRGDTYTTDYDYWGQGTQVTLSS	low polyreactivity
QVQLVESGVGLVQAGGSLRLSCAASGSIFHINAMGWSRQAPGKERELEADISQRGGSTYYADSVKGRFTISRDNAKNTVYLQMNSLKPEDTAVYFCAVVHVFYAVSYFSFYTYDYWGQGTQVTLSS	low polyreactivity
QVQLVESGVGLVQAGGSLRLSCAASGSIFQDNAMGWYRQAPGKERELVAAISSGDSTYYADSVKGRFTISRDNAKNTVYLQMNSLKPEDTAVYYCAKVPSRWSRQDKAQFDYWGQGTQVTVSS	low polyreactivity
